Assay results reported in patent US8722856B2, “Anti-MUC1 antibody” (National University Corporation Hokkaido University, priority 2008, dated 2014).

Legend:
[1] = biological target: T1, 2,3-ST(DT*R)-20 (Compound No. 2) (Homo sapiens, UniProt P15941); experiment: Sugar chain specificity, competitive ELISA against Biotin-Tn(DT*R)-100; assay type: binding; conditions: glycopeptide 2,3-ST (Compound No. 2), reference = 100%
T1 construct: Synthesis of MUC1 Tn20-mer Glycopeptide; made in house; host or cells: chemical solid-phase synthesis, then enzymatic sialylation
Method: (§1) Such specificity can be expressed by a difference in cross reactivity. The cross reactivity is obtained by a calculation equation of (IC50 for cancer-associated structure 2,3ST/IC50 for sugar chain structure to be compared)×100(%). As used herein, inclusion of specificity refers to a difference of 2 fold or more.
(§2) Ten days after cell fusion, screening of a specific antibody-producing cell was performed. ELISA was used in screening is as follows. To each well of a 384-well microtiter plate (manufactured by Nunc) 35 μl of a Tris buffer (50 mM Tris-HCl, pH 7.5) containing 0.35 μg of an anti-mouse IgG antibody (manufactured by Shibayagi Co., Ltd.) was added to immobilize the antibody at 4° C. for 16 hours. After these wells were washed with 90 μl of a washing solution (physiological saline containing 0.01% Tween 20) once, 200 μl of BLOCK ACE (manufactured by Dainippon Sumitomo Pharma Co., Ltd.) was added, and this was allowed to stand at room temperature for 2 hours for blocking (an anti-mouse IgG antibody solid-phased plate). After each well was washed with 90 μl of a washing solution once, 10 μl of a hybridoma culture supernatant, 10 μl of a buffer A (50 mM Tris buffer containing 0.5% bovine serum albumin, 0.01% Tween 80, 0.05% Proclin 150, and 0.15 M. NaCl, pH 7.4), and 10 μl of a buffer A containing 0.01 ng of Biotin-2,3-ST(DT*R)-20 (Compound No. 16 of Table 1) and 2 ng of Streptavidin-HRP (manufactured by PIERCE) were added to perform a reaction at 4° C. for 16 hours. Then, after each well was washed with 90 μl of a washing solution three times, 25 μl of TMB+-Substrate-Chromogen (manufactured by DAKO) was added to develop a color at room temperature for 30 minutes, 25 μl of 0.05 M sulfuric acid was added to stop the reaction, and absorbance was measured at 450 nm. […] Using a mouse monoclonal antibody isotyping ELISA kit (manufactured by BD Bioscience), a subclass of the antibody was determined and, as a result, an isotype of 1B2 was IgG2a.
(§3) Fifteen (15) μl of a buffer A containing a MUC1 antibody was added to an anti-mouse IgG antibody solid-phased plate and the reaction was allowed to proceed at room temperature for 3 hours. […] Then, after each well was washed with 90 μl of a washing solution three times, 15 μl of TMB+-Substrate-Chromogen (manufactured by DAKO) was added to develop a color at room temperature for 30 minutes, 15 μl of 0.05 M sulfuric acid was added to stop the reaction, and absorbance at 450 nm was measured.

[2] = biological target: T2, 2,3ST6L(DT*R)-20 (Compound No. 7) (Homo sapiens, UniProt P15941); experiment: as above; assay type: binding; conditions: glycopeptide 2,3ST6L (Compound No. 7)
T2 construct: Synthesis of MUC1 Tn20-mer Glycopeptide; made in house; host or cells: chemical solid-phase synthesis (Compound 5), then enzymatic sugar extension
Method: as §1, §2, §3

[3] = biological target: T3, 40 (Compound No. 13), non-glycosylated (Homo sapiens, UniProt P15941); experiment: as above; assay type: binding; conditions: Non-glycosylated peptide (Compound No. 13)
T3 construct: made in house; host or cells: chemical solid-phase synthesis
Method: as §1, §2, §3

[4] = biological target: T4, ST2-6(DT*R)-20 (Compound No. 10) (Homo sapiens, UniProt P15941); experiment: as above; assay type: binding; conditions: glycopeptide ST2-6 (Compound No. 10)
T4 construct: Synthesis of MUC1 Tn20-mer Glycopeptide; made in house; host or cells: chemical solid-phase synthesis
Method: as §1, §2, §3

[5] = biological target: T5, STn(DT*R)-20 (Compound No. 4) (Homo sapiens, UniProt P15941); experiment: as above; assay type: binding; conditions: glycopeptide STn (Compound No. 4)
T5 construct: Synthesis of MUC1 Tn20-mer Glycopeptide; made in house; host or cells: chemical solid-phase synthesis
Method: as §1, §2, §3

[6] = biological target: T6, Tn(DT*R)-20 (Compound No. 3) (Homo sapiens, UniProt P15941); experiment: as above; assay type: binding; conditions: glycopeptide Tn (Compound No. 3)
T6 construct: Synthesis of MUC1 Tn20-mer Glycopeptide; made in house; host or cells: chemical solid-phase synthesis
Method: as §1, §2, §3

[7] = test system: human breast cancer cell strains (T-47D)
Method: Antibody-dependant cytotoxicity was analyzed by a chromium release test. Human peripheral mononuclear cell (PBMC) was separated from peripheral blood of a healthy person using Ficoll-paque PLUS (manufactured by GE Healthcare) according to the package insert. DMEM containing 10% FCS was added to the separated PBMC so that the number became 4×10^6/ml.
50 μl of physiological saline containing 1.85 MBq ^51Cr (manufactured by Perkin Elmer) was added to 200 μl of DMEM containing 1×10^6 human breast cancer cell strains (T-47D) and human mammary gland epithelial cell strains (184A1) and the reaction was allowed to proceed at 37° C. for 1 hour. Thereafter, cells were washed with 10 ml of DMEM three times, and DMEM was added to 5×10^4 cells/ml. […] Thereafter, 100 μl of PBMC was added and the reaction was allowed to proceed at 37° C. for 2 hours. Thereafter, the plate was centrifuged at 500×g for 5 minutes at room temperature and γ-ray of 100 μl of the supernatant was measured with ARC-7001 (manufactured by Aloka). Antibody-specific cytotoxicity (%) was obtained using the following calculation equation. Cytotoxicity(%)=(experimental value−natural release)/(maximum release−natural release)×100

T5 sequence (P15941 136-155): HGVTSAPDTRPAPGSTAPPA
T3 sequence (P15941 136-175): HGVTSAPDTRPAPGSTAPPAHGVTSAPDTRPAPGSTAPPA

B1: 1B2: mouse monoclonal anti-MUC1 antibody, isotype IgG2a, clone from immunization with 2,3-ST(DT*R)-20 conjugated to BSA (antibody, V domains shown)
VH: MEWIWIFLFILSGTAGVQSQVQLQQSGAELARPGASVKLSCKASGYTFTNYGLSWVKQRTGQGLEWIGENHPGSGIIYHNEKFRGKATLTADKSSSTAYVQLSSLTSEDSAVYFCARSSGTRGFAYWGQGTLVTVSA
VL: MKLPVRLLVLMFWIPASSSDVLMTQTPLSLPVSLGDQASISCRSSQSIVHSNGNTYLEWYLQKPGQSPKLLIYKVSNRFSGVPDRFSGSGSGTDFTLKISRVEAEDLGVYYCFQGSHGPWTFGGGTKLEIKRA
modifications: Antibody 1B2 VH sequence; Antibody 1B2 VL sequence
- Cross reactivity letting 2,3-ST to be 100% [1]: 100%
- Cross reactivity letting 2,3-ST to be 100% [2]: 0.063%
- Cross reactivity letting 2,3-ST to be 100% [3]: 0.13%
- Cross reactivity letting 2,3-ST to be 100% [4]: 0.15%
- Cross reactivity letting 2,3-ST to be 100% [5]: 0.36%
- Cross reactivity letting 2,3-ST to be 100% [6]: 81%
- Antibody-specific cytotoxicity [7]: about 15%
